In one test the test system is HLA-DR molecules. In kind it is binding, human.
For the next test, the target named is DRB1*1501 (DR15) (Homo sapiens, UniProt P01903+P01911). In kind it is binding.
Another test relates to human PBMCs. It is filed as cell-based.
In test [1] the test system is CD4^+ T cells of HLA class II transgenic mice. It is filed as cell-based.
For a further test, the target named is DRB1*0301 (DR3) (Homo sapiens, UniProt P01903+P01911, A100K/A102G/A103R/A169T/F55Y/I96L/K41T/L162R/M171V/P40S/Q125H/Q178H/Q39Y/R42S/S66N/T106N/T262R/W38E/Y61H). It is filed as binding.
The target in another test is DRB1*1301 (DR13) (Homo sapiens, UniProt P01903+P01911, A100E/A169T/K41T/L162R/M171V/P40S/Q125H/Q178H/Q39Y/Q99D/R42S/S66N/T262R/W38E/Y61H). It is filed as binding.
The target of a further test is DRB1*0401 (DR4) (Homo sapiens, UniProt P01903+P01911, A100K/A169T/F76Y/I96L/K127E/L162R/M171V/N62H/P40V/Q125Y/R42H/S133A/S149N/S66Y/V115G/V209L/W38E). It is filed as binding.
The target in a further test is DRB1*0101 (DR1) (Homo sapiens, UniProt P01903+P01911, A100R/D57E/F55L/F60I/F76Y/I96L/L162R/M171V/P40L/Q125E/R42F/V115G/Y59C). In kind it is binding.
Another test deals with DRB1*0701 (DR7) (Homo sapiens, UniProt P01903+P01911, A100R/A102G/A103Q/D57E/D86V/E43K/F76Y/K127E/L162R/M171V/P40G/Q125H/Q99D/R33Q/R42Y/R54Q/S133A/S66F/T210M/V115G/Y107V/Y59L/Y89S). It is filed as binding.
A further test deals with DRB1*1101 (DR11) (Homo sapiens, UniProt P01903+P01911, A100R/A169T/A87E/I96F/K41T/L162R/M171V/P40S/Q125H/Q178H/Q39Y/Q99D/R42S/S66Y/T262R/V115G/W38E). It is filed as binding.

Entries after “also recorded” stand apart in the source; their conditions may differ.

The results in this text go back to US20170058005A1 (priority 2014, published 2017).

Take KIYLYENMNINNLTATLGAD: in the test with HLA-DR molecules, the “Binding across all HLA-DR alleles assayed” value was “strong binding affinity across all HLA-DR alleles assayed”; the “Binding to HLA-DR1, DR4 and DR15” value is listed as “strong binders to all three HLA-DR alleles”. In the test with DRB1*1501 (DR15), the “Relative binding affinity of peptide to HLA-DR molecules, DR15” value turned out to be 0.1 and the “Strong relative binding affinity of peptide to HLA-DR molecules, DR15” value is “+ (key: +: Strong binding affinity was defined in this study as a relative activity <10)”. In addition, the “T cell recognition in human cohorts” value in the test with human PBMCs is given as “recognized by a high proportion of naturally infected donors, but not vaccinated individuals”. In test [1], the “CD4 T cell response in LF immunized HLA transgenics” value is “recognised by all LF immunized HLA transgenics; also recorded: capable of eliciting a T cell response from all the HLA transgenics; also recorded: immunogenic in all three HLA-DR transgenic strains”; the “HLA-restriction based on CD4 T cell response class II HLA transgenics after priming with LF” value (from here on “HLA-restriction based”) was “DR1, DR4, DR15,; also recorded: DQ8, DQ6”; the Peptide-specific recall response was “strongest peptide recall in both groups”. Also, in the test with DRB1*0301 (DR3), the “Relative binding affinity of peptide to HLA-DR molecules, DR3” value was 1 and the “Strong relative binding affinity of peptide to HLA-DR molecules, DR3” value is reported as “+ (key: +: Strong binding affinity was defined in this study as a relative activity <10)”. Moreover, the “Relative binding affinity of peptide to HLA-DR molecules, DR13” value (from here on “Relative binding affinity of peptide … DR13”) with DRB1*1301 (DR13) is 17. Further, in the test with DRB1*0401 (DR4), the “Relative binding affinity of peptide to HLA-DR molecules, DR4” value is on record as 0.2 and the “Strong relative binding affinity of peptide to HLA-DR molecules, DR4” value is on record as “+ (key: +: Strong binding affinity was defined in this study as a relative activity <10)”. In the test with DRB1*0101 (DR1), the “Relative binding affinity of peptide to HLA-DR molecules, DR1” value was 0.2 and the “Strong relative binding affinity of peptide to HLA-DR molecules, DR1” value was “+ (key: +: Strong binding affinity was defined in this study as a relative activity <10)”. Further, in the test with DRB1*0701 (DR7), the “Relative binding affinity of peptide to HLA-DR molecules, DR7” value was 5 and the “Strong relative binding affinity of peptide to HLA-DR molecules, DR7” value is “+ (key: +: Strong binding affinity was defined in this study as a relative activity <10)”. In the test with DRB1*1101 (DR11), the “Relative binding affinity of peptide to HLA-DR molecules, DR11” value was 5 and the “Strong relative binding affinity of peptide to HLA-DR molecules, DR11” value is given as “+ (key: +: Strong binding affinity was defined in this study as a relative activity <10)”.

Regarding PESRSILLHGPSKGVELRND, the “Binding across all HLA-DR alleles assayed” value with HLA-DR molecules was “strong to moderate binding across all seven HLA-DR alleles”. In addition, the “Relative binding affinity of peptide to HLA-DR molecules, DR15” value with DRB1*1501 (DR15) amounted to 17. Besides, in test [1], the “CD4 T cell response in LF immunized HLA transgenics” value is reported as “elicited a T cell response in a single HLA transgenic strain; also recorded: immunodominant epitopes in HLA-DR15 transgenics” and the “HLA-restriction based” value is reported as “DR15”. In the test with DRB1*0301 (DR3), the “Relative binding affinity of peptide to HLA-DR molecules, DR3” value is 354. Also, the “Relative binding affinity of peptide … DR13” value with DRB1*1301 (DR13) came to 21. For the same sequence, the “Relative binding affinity of peptide to HLA-DR molecules, DR4” value in the test with DRB1*0401 (DR4) came out at 22. Further, in the test with DRB1*0101 (DR1), the “Relative binding affinity of peptide to HLA-DR molecules, DR1” value is on record as 7. Further, in the test with DRB1*0701 (DR7), the “Relative binding affinity of peptide to HLA-DR molecules, DR7” value turned out to be 51. For the same sequence, the “Relative binding affinity of peptide to HLA-DR molecules, DR11” value with DRB1*1101 (DR11) is recorded as 120.

For the sequence QHRDVLQLYAPEAFNYMDKF, the “Binding across all HLA-DR alleles assayed” value in the test on HLA-DR molecules is on record as “strong to moderate binding across all seven HLA-DR alleles”. In the test with DRB1*1501 (DR15), the “Relative binding affinity of peptide to HLA-DR molecules, DR15” value was 0.3. For the same sequence, the “HLA-restriction based” value in [1] is “DR1, DQ8”. In addition, the “Relative binding affinity of peptide to HLA-DR molecules, DR3” value with DRB1*0301 (DR3) is given as 3. Moreover, the “Relative binding affinity of peptide … DR13” value with DRB1*1301 (DR13) is 267. For the same sequence, the “Relative binding affinity of peptide to HLA-DR molecules, DR4” value in the test with DRB1*0401 (DR4) was found to be 100. Besides, the “Relative binding affinity of peptide to HLA-DR molecules, DR1” value in the test with DRB1*0101 (DR1) stood at 146. Besides, in the test with DRB1*0701 (DR7), the “Relative binding affinity of peptide to HLA-DR molecules, DR7” value is given as 83. The “Relative binding affinity of peptide to HLA-DR molecules, DR11” value with DRB1*1101 (DR11) is 5.

With QNSNEVQEVFAKAFAYYIEP, the “Binding across all HLA-DR alleles assayed” value with HLA-DR molecules is listed as “strong to moderate binding across all seven HLA-DR alleles”. The “Relative binding affinity of peptide to HLA-DR molecules, DR15” value with DRB1*1501 (DR15) is 1. In addition, the “HLA-restriction based” value in test [1] was “DR1”. Moreover, the “Relative binding affinity of peptide to HLA-DR molecules, DR3” value with DRB1*0301 (DR3) is listed as 173. Further, the “Relative binding affinity of peptide … DR13” value with DRB1*1301 (DR13) came to 327. In addition, in the test with DRB1*0401 (DR4), the “Relative binding affinity of peptide to HLA-DR molecules, DR4” value is on record as 137. In the test with DRB1*0101 (DR1), the “Relative binding affinity of peptide to HLA-DR molecules, DR1” value is listed as 0.1. Also, the “Relative binding affinity of peptide to HLA-DR molecules, DR7” value with DRB1*0701 (DR7) is 0.4. In addition, in the test with DRB1*1101 (DR11), the “Relative binding affinity of peptide to HLA-DR molecules, DR11” value came to 2.

For the sequence QSDLIKKVTNYLVDGNGRFV, the “Binding across all HLA-DR alleles assayed” value in the test with HLA-DR molecules is reported as “strong to moderate binding across all seven HLA-DR alleles”. In the test with DRB1*1501 (DR15), the “Relative binding affinity of peptide to HLA-DR molecules, DR15” value is on record as 0.2. Besides, the “HLA-restriction based” value in test [1] was “DR15”. Further, in the test with DRB1*0301 (DR3), the “Relative binding affinity of peptide to HLA-DR molecules, DR3” value is listed as 26. Also, the “Relative binding affinity of peptide … DR13” value in the test with DRB1*1301 (DR13) worked out at 38. For the same sequence, the “Relative binding affinity of peptide to HLA-DR molecules, DR4” value in the test with DRB1*0401 (DR4) is recorded as 15. The “Relative binding affinity of peptide to HLA-DR molecules, DR1” value with DRB1*0101 (DR1) was 12. In addition, in the test with DRB1*0701 (DR7), the “Relative binding affinity of peptide to HLA-DR molecules, DR7” value came to 4. The “Relative binding affinity of peptide to HLA-DR molecules, DR11” value with DRB1*1101 (DR11) was 139.

Consider SDVLEMYKAIGGKIYIVDGD, for which the “Binding across all HLA-DR alleles assayed” value with HLA-DR molecules is “strong to moderate binding across all seven HLA-DR alleles”. Besides, the “Relative binding affinity of peptide to HLA-DR molecules, DR15” value with DRB1*1501 (DR15) was 2. Also, in test [1], the “CD4 T cell response in LF immunized HLA transgenics” value was “HLA-DQ8 specific response” and the “HLA-restriction based” value is recorded as “DQ8”. In the test with DRB1*0301 (DR3), the “Relative binding affinity of peptide to HLA-DR molecules, DR3” value is above 76. In the test with DRB1*1301 (DR13), the “Relative binding affinity of peptide … DR13” value amounted to 123. For the same sequence, the “Relative binding affinity of peptide to HLA-DR molecules, DR4” value with DRB1*0401 (DR4) came out at 305. Besides, in the test with DRB1*0101 (DR1), the “Relative binding affinity of peptide to HLA-DR molecules, DR1” value is 5. Besides, the “Relative binding affinity of peptide to HLA-DR molecules, DR7” value in the test with DRB1*0701 (DR7) is on record as 1. The “Relative binding affinity of peptide to HLA-DR molecules, DR11” value with DRB1*1101 (DR11) came to 4.

Regarding VENTEKALNVYYEIGKILSR, the “Binding across all HLA-DR alleles assayed” value in the test with HLA-DR molecules is reported as “strong to moderate binding across all seven HLA-DR alleles”. Also, in the test with DRB1*1501 (DR15), the “Relative binding affinity of peptide to HLA-DR molecules, DR15” value turned out to be 0.2. Further, in [1], the “HLA-restriction based” value was “DR1”. Also, the “Relative binding affinity of peptide to HLA-DR molecules, DR3” value with DRB1*0301 (DR3) stood at 418. The “Relative binding affinity of peptide … DR13” value with DRB1*1301 (DR13) was determined as 71. Besides, the “Relative binding affinity of peptide to HLA-DR molecules, DR4” value with DRB1*0401 (DR4) came to 81. Besides, the “Relative binding affinity of peptide to HLA-DR molecules, DR1” value with DRB1*0101 (DR1) is reported as 1. In addition, the “Relative binding affinity of peptide to HLA-DR molecules, DR7” value in the test with DRB1*0701 (DR7) is listed as 36. In addition, in the test with DRB1*1101 (DR11), the “Relative binding affinity of peptide to HLA-DR molecules, DR11” value is 0.03.
